Laboratory results reported in paper PMC9616523.

Legend:
[1] = target: mouse FcγRIV (mouse); assay: SPR; Biacore T200; receptor captured by its 6xHis tag on an anti‐6xHis antibody amine‐coupled to a CM5 chip; AvFc variants flowed over, 5 concentrations from 2 μM in 1:2 dilutions, 30 μL/min, 240 s association, 600 s dissociation; 1:1 binding model
[2] = target: human FcγRIIIa (human) (UniProt P08637); assay: as above
[3] = target: human FcγRIIIa (human) (UniProt P08637)
[4] = target: human FcγRI (human) (UniProt P12314); assay: SPR; Biacore T200; hFcγRI captured on an NTA chip loaded with Ni2+ (≈200 RU); AvFc flowed over, 5 concentrations from 324 nM in 1:3 dilutions; regeneration 350 mM EDTA; 1:1 binding model
Chain of human FcγRI (human) (P12314 16-292): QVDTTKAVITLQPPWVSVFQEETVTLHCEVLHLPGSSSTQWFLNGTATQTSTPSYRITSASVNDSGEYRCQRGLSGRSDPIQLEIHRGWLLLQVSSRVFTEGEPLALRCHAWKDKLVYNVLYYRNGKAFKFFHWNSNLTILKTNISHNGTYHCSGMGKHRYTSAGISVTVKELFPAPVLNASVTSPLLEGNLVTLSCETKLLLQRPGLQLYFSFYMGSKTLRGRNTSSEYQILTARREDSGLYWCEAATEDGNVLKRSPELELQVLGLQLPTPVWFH

Chain of mouse FcγRIV (mouse) (A0A0B4J1G0 21-203): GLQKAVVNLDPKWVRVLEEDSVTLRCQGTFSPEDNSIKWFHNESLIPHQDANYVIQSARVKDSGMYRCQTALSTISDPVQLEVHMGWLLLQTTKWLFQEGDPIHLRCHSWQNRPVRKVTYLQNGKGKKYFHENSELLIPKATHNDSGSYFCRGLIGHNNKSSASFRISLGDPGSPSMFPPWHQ

Substance | fold increase in affinity over AvFc^WT [1] [fold] | fold increase in affinity over AvFc^WT [2] [fold] | ADCC reporter assay: luciferase in Jurkat effector cells expressing hFcγRIIIa, B16F10 target cells, AvFc 650 nM to 8.32 pM; EC50 [3] [nM] | ADCC reporter assay: luciferase in Jurkat effector cells expressing hFcγRIIIa, B16F10 target cells, AvFc 650 nM to 8.32 pM; highest luciferase induction [3] [fold] | fold increase in affinity over AvFc^WT [4] [fold]
Avaren‐Fc expressed in glycoengineered ΔXylT/ΔFucT N. benthamiana (AvFc^ΔXF) (Fc fusion) | 5.5 | 3.8 | 2.75 | 5.5 | 1.9
Avaren‐Fc expressed in wild‐type N. benthamiana (AvFc^WT) (Fc fusion) |  |  | 13.8 | 2.9 | 
